B1: Ras-related protein Rab-8A (Homo sapiens), P61006 (parent)
chain: MAKTYDYLFKLLLIGDSGVGKTCVLFRFSEDAFNSTFISTIGIDFKIRTIELDGKRIKLQIWDTAGQERFRTITTAYYRGAMGIMLVYDITNEKSFDNIRNWIRNIEEHASADVEKMILGNKCDVNDKRQVSKERGEKLALDYGIKFMETSAKANINVENAFFTLARDIKAKMDKKLEGNSPQGSNQGVKITPDQQKRSSFFRCVLL

Variants of: B1
Conditions: with optn_human OPTN

Variant | effect of a mutation on the interaction
T22N | decreasing interaction

— IntAct's records for PubMed 20388642
